Results published in US6696409.

Experiments:
[1] = molecular target: Y2-like receptors in anaesthetised rats (rat); test: cell-based or functional assay
[2] = molecular target: Y1 receptors in anaesthetised rats (rat); test: cell-based or functional assay

## Ac[L28,I30]NPY24-36 (from UniProt P01303 52-64) (peptide)
[1]
  EC50 of the change in pulse interval (PI %), vagal stimulation in anaesthetised rats: 1.26 nmol
[2]
  Increase in BP (rel to NPY), anaesthetised rats (relative to NPY): 0
